Results on 19 proteins are retold here after PMC9242541, “Importance of Rare DPYD Genetic Polymorphisms for 5-Fluorouracil Therapy in the Japanese Population” (Frontiers in Pharmacology, 2022).

The data set concerns the molecule itself. Put plainly: native gel or EMSA; blue native PAGE (Tris-glycine buffer, 5%-20% polyacrylamide gels), 9 μg of the soluble fraction of transfected 293FT cells per lane, immunoblot with polyclonal anti-human DPD antibody; monomer to dimer.

Residue numbers refer to the chain shown, from its start.

B1: DPD variant Q604L (enzyme, human, UniProt Q12882 4-1025, looked up)
chain: VLSKDSADIESILALNPRTQTHATLCSTSAKKLDKKHWKRNPDKNCFNCEKLENNFDDIKHTTLGERGALREAMRCLKCADAPCQKSCPTNLDIKSFITSIANKNYYGAAKMIFSDNPLGLTCGMVCPTSDLCVGGCNLYATEEGPINIGGLQQFATEVFKAMSIPQIRNPSLPPPEKMSEAYSAKIALFGAGPASISCASFLARLGYSDITIFEKQEYVGGLSTSEIPQFRLPYDVVNFEIELMKDLGVKIICGKSLSVNEMTLSTLKEKGYKAAFIGIGLPEPNKDAIFQGLTQDQGFYTSKDFLPLVAKGSKAGMCACHSPLPSIRGVVIVLGAGDTAFDCATSALRCGARRVFIVFRKGFVNIRAVPEEMELAKEEKCEFLPFLSPRKVIVKGGRIVAMQFVRTEQDETGKWNEDEDQMVHLKADVVISAFGSVLSDPKVKEALSPIKFNRWGLPEVDPETMQTSEAWVFAGGDVVGLANTTVESVNDGKQASWYIHKYVQSQYGASVSAKPELPLFYTPIDLVDISVEMAGLKFINPFGLASATPATSTSMIRRAFEAGWGFALTKTFSLDKDIVTNVSPRIIRGTTSGPMYGPGLSSFLNIELISEKTAAYWCQSVTELKADFPDNIVIASIMCSYNKNDWTELAKKSEDSGADALELNLSCPHGMGERGMGLACGQDPELVRNICRWVRQAVQIPFFAKLTPNVTDIVSIARAAKEGGANGVTATNTVSGLMGLKSDGTPWPAVGIAKRTTYGGVSGTAIRPIALRAVTSIARALPGFPILATGGIDSAESGLQFLHSGASVLQVCSAIQNQDFTVIEDYCTGLKALLYLKSIEELQDWDGQSPATVSHQKGKPVPRIAELMDKKLPSFGPYLEQRKKIIAENKIRLKEQNVAFSPLKRNCFIPKRPIPTIKDVIGKALQYLGTFGELSNVEQVVAMIDEEMCINCGKCYMTCNDSGYQAIQFDPETHLPTITDTCTGCTLCLSVCPIVDCIKMVSRTTPYEPKRGVPLSVNPVC
notes: dihydropyrimidine dehydrogenase (DPD), human, DPYD cDNA with a variant found in Japanese individuals; made by site-directed mutagenesis of the wild-type construct; also called 1811A > T; source: 293FT cells, transfected (pcDNA3.4), soluble fraction
On to B1, for which the “stoichiometry N” value was 2.

B2: DPD variant S175L (enzyme, human, UniProt Q12882 4-1025, looked up)
chain: B1 chain with S172L, L601Q
notes: dihydropyrimidine dehydrogenase (DPD), human, DPYD cDNA with a variant found in Japanese individuals; made by site-directed mutagenesis of the wild-type construct; also called 524C > T; source: 293FT cells, transfected (pcDNA3.4), soluble fraction
In the case of B2, the “stoichiometry N” value was 2.

B3: DPD variant Y109N (enzyme, human, UniProt Q12882 4-1025, looked up)
chain: B1 chain with Y106N, L601Q
notes: dihydropyrimidine dehydrogenase (DPD), human, DPYD cDNA with a variant found in Japanese individuals; made by site-directed mutagenesis of the wild-type construct; also called 325T > A; source: 293FT cells, transfected (pcDNA3.4), soluble fraction
As to B3, the “stoichiometry N” value is 2.

B4: DPD risk variant D949V (enzyme, human, UniProt Q12882 4-1025, looked up)
chain: B1 chain with L601Q, D946V
notes: dihydropyrimidine dehydrogenase (DPD), human, DPYD cDNA with a risk variant reported in Caucasians; made by site-directed mutagenesis of the wild-type construct; also called c.2846A>T; 2846A > T; source: 293FT cells, transfected (pcDNA3.4), soluble fraction
On to B4, for which the “stoichiometry N” value amounted to 2.

B5: DPD variant M166V (enzyme, human, UniProt Q12882 4-1025, looked up)
chain: B1 chain with M163V, L601Q
notes: dihydropyrimidine dehydrogenase (DPD), human, DPYD cDNA with a variant found in Japanese individuals; made by site-directed mutagenesis of the wild-type construct; also called 496A > G; source: 293FT cells, transfected (pcDNA3.4), soluble fraction
For B5, the “stoichiometry N” value came out at 2.

B6: DPD variant T990I (enzyme, human, UniProt Q12882 4-1025, looked up)
chain: B1 chain with L601Q, T987I
notes: dihydropyrimidine dehydrogenase (DPD), human, DPYD cDNA with a variant found in Japanese individuals; made by site-directed mutagenesis of the wild-type construct; also called 2969C > T; source: 293FT cells, transfected (pcDNA3.4), soluble fraction
Take B6: the “stoichiometry N” value is 2.

B7: DPD variant S939N (enzyme, human, UniProt Q12882 4-1025, looked up)
chain: B1 chain with L601Q, S936N
notes: dihydropyrimidine dehydrogenase (DPD), human, DPYD cDNA with a variant found in Japanese individuals; made by site-directed mutagenesis of the wild-type construct; also called 2816G > A; source: 293FT cells, transfected (pcDNA3.4), soluble fraction
For the protein B7, the “stoichiometry N” value was 2.

B8: DPD variant G748D (enzyme, human, UniProt Q12882 4-1025, looked up)
chain: B1 chain with L601Q, G745D
notes: dihydropyrimidine dehydrogenase (DPD), human, DPYD cDNA with a variant found in Japanese individuals; made by site-directed mutagenesis of the wild-type construct; also called 2243G > A; source: 293FT cells, transfected (pcDNA3.4), soluble fraction
For the protein B8, the “stoichiometry N” value came to 2.

B9: DPD variant A191V (enzyme, human, UniProt Q12882 4-1025, looked up)
chain: B1 chain with A188V, L601Q
notes: dihydropyrimidine dehydrogenase (DPD), human, DPYD cDNA with a variant found in Japanese individuals; made by site-directed mutagenesis of the wild-type construct; also called 572C > T; source: 293FT cells, transfected (pcDNA3.4), soluble fraction
For B9, the “stoichiometry N” value came out at 2.

B10: DPD variant V738L (enzyme, human, UniProt Q12882 4-1025, looked up)
chain: B1 chain with L601Q, V735L
notes: dihydropyrimidine dehydrogenase (DPD), human, DPYD cDNA with a variant found in Japanese individuals; made by site-directed mutagenesis of the wild-type construct; also called 2212G > C; source: 293FT cells, transfected (pcDNA3.4), soluble fraction
With B10, the “stoichiometry N” value worked out at 2.

B11: DPD variant V732I (enzyme, human, UniProt Q12882 4-1025, looked up)
chain: B1 chain with L601Q, V729I
notes: dihydropyrimidine dehydrogenase (DPD), human, DPYD cDNA with a variant found in Japanese individuals; made by site-directed mutagenesis of the wild-type construct; also called 2194G > A (*6); source: 293FT cells, transfected (pcDNA3.4), soluble fraction
For the protein B11, the “stoichiometry N” value was 2.

B12: DPD variant N151D (enzyme, human, UniProt Q12882 4-1025, looked up)
chain: B1 chain with N148D, L601Q
notes: dihydropyrimidine dehydrogenase (DPD), human, DPYD cDNA with a variant found in Japanese individuals; made by site-directed mutagenesis of the wild-type construct; also called 451A > G; source: 293FT cells, transfected (pcDNA3.4), soluble fraction
Regarding B12, the “stoichiometry N” value worked out at 2.

B13: DPD variant V826M (enzyme, human, UniProt Q12882 4-1025, looked up)
chain: B1 chain with L601Q, V823M
notes: dihydropyrimidine dehydrogenase (DPD), human, DPYD cDNA with a variant found in Japanese individuals; made by site-directed mutagenesis of the wild-type construct; also called 2476G > A; source: 293FT cells, transfected (pcDNA3.4), soluble fraction
On to B13, for which the “stoichiometry N” value amounted to 2.

B14: DPD variant I843T (enzyme, human, UniProt Q12882 4-1025, looked up)
chain: B1 chain with L601Q, I840T
notes: dihydropyrimidine dehydrogenase (DPD), human, DPYD cDNA with a variant found in Japanese individuals; made by site-directed mutagenesis of the wild-type construct; also called 2528T > C; source: 293FT cells, transfected (pcDNA3.4), soluble fraction
In the case of B14, the “stoichiometry N” value came out at 2.

B15: DPD variant M77V (enzyme, human, UniProt Q12882 4-1025, looked up)
chain: B1 chain with M74V, L601Q
notes: dihydropyrimidine dehydrogenase (DPD), human, DPYD cDNA with a variant found in Japanese individuals; made by site-directed mutagenesis of the wild-type construct; also called 229A > G; source: 293FT cells, transfected (pcDNA3.4), soluble fraction
Take B15: the “stoichiometry N” value amounted to 2.

B16: DPD variant R886H (enzyme, human, UniProt Q12882 4-1025, looked up)
chain: B1 chain with L601Q, R883H
notes: dihydropyrimidine dehydrogenase (DPD), human, DPYD cDNA with a variant found in Japanese individuals; made by site-directed mutagenesis of the wild-type construct; also called 2657G > A (*9B); source: 293FT cells, transfected (pcDNA3.4), soluble fraction
For B16, the “stoichiometry N” value turned out to be 2.

B17: DPD variant N893S (enzyme, human, UniProt Q12882 4-1025, looked up)
chain: B1 chain with L601Q, N890S
notes: dihydropyrimidine dehydrogenase (DPD), human, DPYD cDNA with a variant found in Japanese individuals; made by site-directed mutagenesis of the wild-type construct; also called 2678A > G; source: 293FT cells, transfected (pcDNA3.4), soluble fraction
With B17, the “stoichiometry N” value was determined as 2.

B18: DPD variant H807R (enzyme, human, UniProt Q12882 4-1025, looked up)
chain: B1 chain with L601Q, H804R
notes: dihydropyrimidine dehydrogenase (DPD), human, DPYD cDNA with a variant found in Japanese individuals; made by site-directed mutagenesis of the wild-type construct; source: 293FT cells, transfected (pcDNA3.4), soluble fraction
For the protein B18, the “stoichiometry N” value is 2.

B19: DPD variant T768K (enzyme, human, UniProt Q12882 4-1025, looked up)
chain: B1 chain with L601Q, T765K
notes: dihydropyrimidine dehydrogenase (DPD), human, DPYD cDNA with a variant found in Japanese individuals; made by site-directed mutagenesis of the wild-type construct; also called 2303C > A; source: 293FT cells, transfected (pcDNA3.4), soluble fraction
With B19, the “stoichiometry N” value worked out at 2.
